Source: paper PMC11406360, “The enzymatic oxygen sensor cysteamine dioxygenase binds its protein substrates through their N-termini” (The Journal of Biological Chemistry, 2024)

B1: native RGS5 peptide (first 14 amino acids of the methionine excised N terminus of RGS5) [human] / 2-aminoethanethiol (cysteamine) dioxygenase (ADO), biotinylated, for SPR [modified: biotin (N terminally biotinylated; 0.2 mM biotin added at … (parent complex)
chain 1: CKGLAALPHSCLER
chain 2: MPRDNMASLIQRIARQACLTFRGSGGGRGASDRDAASGPEAPMQPGFPENLSKLKSLLTQLRAEDLNIAPRKATLQPLPPNLPPVTYMHIYETDGFSLGVFLLKSGTSIPLHDHPGMHGMLKVLYGTVRISCMDKLDAGGGQRPRALPPEQQFEPPLQPREREAVRPGVLRSRAEYTEASGPCILTPHRDNLHQIDAVEGPAAFLDILAPPYDPDDGRDCHYYRVLEPVRPKEASSSACDLPREVWLLETPQADDFWCEGEPYPGPKVFP

Variants of: B1
Assay: SPR; parent: 290 nM

Kd	Variant
240 nM	chain 1 H9A
260 nM	chain 1 L12A
260 nM	chain 1 E13A
210 nM	chain 1 R14A
350 nM	chain 1 S10A
250 nM	chain 1 P8A
310 nM	chain 1 L7A
300 nM	chain 1 C11A
220 nM	chain 1 L4A
